Measurements reported in patent publication US20240400703A1.

Columns and labels:
[1] = biological target: recombinant human OX40 fused to a His-tag (Acro Biosystems, cat. no. OX0-H5224) (human) (UniProt P43489); experiment: BLI cross-block; first Ab (competitor): IgG1-CD134-h3C8
[2] = biological target: recombinant human OX40 fused to a His-tag (Acro Biosystems, cat. no. OX0-H5224) (human) (UniProt P43489); experiment: BLI cross-block; first Ab (competitor): IgG1-CD134-003
[3] = biological target: recombinant human OX40 fused to a His-tag (Acro Biosystems, cat. no. OX0-H5224) (human) (UniProt P43489); experiment: BLI cross-block; first Ab (competitor): IgG1-CD134-012
[4] = biological target: recombinant human OX40 fused to a His-tag (Acro Biosystems, cat. no. OX0-H5224) (human) (UniProt P43489); experiment: BLI cross-block; first Ab (competitor): IgG1-CD134-Hu106
[5] = biological target: recombinant human OX40 fused to a His-tag (Acro Biosystems, cat. no. OX0-H5224) (human) (UniProt P43489); experiment: BLI cross-block; first Ab (competitor): IgG1-CD134-MEDI0562
[6] = biological target: recombinant human OX40 fused to a His-tag (Acro Biosystems, cat. no. OX0-H5224) (human) (UniProt P43489); experiment: BLI cross-block; first Ab (competitor): IgG1-CD134-GBR830
[7] = biological target: recombinant human OX40 fused to a His-tag (Acro Biosystems, cat. no. OX0-H5224) (human) (UniProt P43489); experiment: BLI cross-block; first Ab (competitor): IgG1-CD134-IBI101
[8] = biological target: recombinant human OX40 fused to a His-tag (Acro Biosystems, cat. no. OX0-H5224) (human) (UniProt P43489); experiment: BLI cross-block; first Ab (competitor): IgG1-CD134-INCAGN1949
[9] = biological target: recombinant human OX40 fused to a His-tag (Acro Biosystems, cat. no. OX0-H5224) (human) (UniProt P43489); experiment: BLI cross-block; first Ab (competitor): IgG1-CD134-RG7888
[10] = biological target: recombinant human OX40 fused to a His-tag (Acro Biosystems, cat. no. OX0-H5224) (human) (UniProt P43489); experiment: BLI cross-block; first Ab (competitor): IgG1-CD134-ABBV368
[11] = biological target: recombinant human OX40 fused to a His-tag (Acro Biosystems, cat. no. OX0-H5224) (human) (UniProt P43489); experiment: BLI cross-block; first Ab (competitor): IgG1-CD134-11D4
[12] = biological target: recombinant human OX40 fused to a His-tag (Acro Biosystems, cat. no. OX0-H5224) (human) (UniProt P43489); experiment: BLI cross-block; first Ab (competitor): IgG1-CD134-007
[13] = biological target: recombinant human OX40 fused to a His-tag (Acro Biosystems, cat. no. OX0-H5224) (human) (UniProt P43489); experiment: BLI cross-block; first Ab (competitor): IgG1-CD134-49B4-RRE
[14] = biological target: recombinant human OX40 fused to a His-tag (Acro Biosystems, cat. no. OX0-H5224) (human) (UniProt P43489); experiment: BLI cross-block; first Ab (competitor): IgG1-CD134-003-HC6LC2-RR
[15] = biological target: recombinant human OX40 fused to a His-tag (Acro Biosystems, cat. no. OX0-H5224) (human) (UniProt P43489); experiment: BLI cross-block; first Ab (competitor): IgG1-CD134-A4453
[16] = biological target: human OX40 with mouse CRD1 (human with mouse CRD1) (UniProt P43489); experiment: flow cytometry, transfected ExpiCHO-S cells, gMFI (PE)
human OX40 with mouse CRD1 (human with mouse CRD1), sequence (P43489 other isoform, or with tags, fused parts or gaps limits assumed): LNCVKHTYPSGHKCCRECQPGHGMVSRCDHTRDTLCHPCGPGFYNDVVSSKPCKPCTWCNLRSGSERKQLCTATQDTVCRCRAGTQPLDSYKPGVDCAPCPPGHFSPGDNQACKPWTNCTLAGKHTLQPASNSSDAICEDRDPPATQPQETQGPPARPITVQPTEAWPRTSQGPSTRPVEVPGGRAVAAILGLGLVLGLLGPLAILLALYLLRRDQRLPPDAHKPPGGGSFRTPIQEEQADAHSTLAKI

[17] = biological target: recombinant human OX40 fused to a His-tag (Acro Biosystems, cat. no. OX0-H5224) (human) (UniProt P43489); experiment: BLI cross-block; first Ab (competitor): IgG1-CD134-SF2

recombinant human OX40 fused to a His-tag (Acro Biosystems, cat. no. OX0-H5224) (human), sequence (P43489 29-214 limits assumed): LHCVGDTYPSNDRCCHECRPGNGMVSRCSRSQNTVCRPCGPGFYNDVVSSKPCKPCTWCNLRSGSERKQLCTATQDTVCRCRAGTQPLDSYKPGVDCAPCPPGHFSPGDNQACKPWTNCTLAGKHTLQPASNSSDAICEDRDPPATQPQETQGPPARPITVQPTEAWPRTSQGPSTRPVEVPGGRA
IgG1-CD134-IBI101 (antibody), sequence (VH): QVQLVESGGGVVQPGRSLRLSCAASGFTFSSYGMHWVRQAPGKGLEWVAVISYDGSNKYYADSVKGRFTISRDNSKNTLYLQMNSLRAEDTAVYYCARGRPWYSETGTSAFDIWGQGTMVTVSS
IgG1-CD134-IBI101 (antibody), sequence (VL): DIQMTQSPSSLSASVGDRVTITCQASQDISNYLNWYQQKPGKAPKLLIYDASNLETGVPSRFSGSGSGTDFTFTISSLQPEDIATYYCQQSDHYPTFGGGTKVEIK

association response [1] [nm] | association response [2] [nm] | association response [3] [nm] | association response [4] [nm] | association response [5] [nm] | association response [6] [nm] | association response [7] [nm] | association response [8] [nm] | association response [9] [nm] | association response [10] [nm] | association response [11] [nm] | association response [12] [nm] | association response [13] [nm] | association response [14] [nm] | association response [15] [nm] | EC50 (read off the curve) [16] [µg/mL] | association response [17] [nm] | Substance
-0.03 | 0.74 | 0.82 | -0.02 | 0.26 | 0.01 | 0.01 | 0.02 | 0.31 | -0.02 | 0.15 | 0.02 | 0 | 1.23 | 0.24 | 0.07 | 0.07 | IgG1-CD134-IBI101 (antibody)
-0.02 | 1.39 | 0.73 | -0.01 | 0.01 | 0.01 | 0.01 | 0 | 0.01 | -0.03 | 0.11 | 0.55 | 0 | 1.74 | 0.25 | 0.09 | 0.02 | IgG1-CD134-INCAGN1949 (antibody)
